# Where a chain is given by its changes, count along the chain named. In names and notes the source's numbering stands.
# B1: Zymomonas mobilis pyruvate decarboxylase Zm-Pdc variant G413N, SEQ ID No. 194 (Zymomonas mobilis subsp. mobilis ZM4 = ATCC 31821; G413N) (protein)
# chain: MSYTVGTYLAERLVQIGLKHHFAVAGDYNLVLLDNLLLNKNMEQVYCCNELNCGFSAEGYARAKGAAAAVVTYSVGALSAFDAIGGAYAENLPVILISGAPNNNDHAAGHVLHHALGKTDYHYQLEMAKNITAAAEAIYTPEEAPAKIDHVIKTALREKKPVYLEIACNIASMPCAAPGPASALFNDEASDEASLNAAVEETLKFIANRDKVAVLVGSKLRAAGAEEAAVKFADALGGAVATMAAAKSFFPEENPHYIGTSWGEVSYPGVEKTMKEADAVIALAPVFNDYSTTGWTDIPDPKKLVLAEPRSVVVNGIRFPSVHLKDYLTRLAQKVSKKTGALDFFKSLNAGELKKAAPADPSAPLVNAEIARQVEALLTPNTTVIAETGDSWFNAQRMKLPNGARVEYEMQWNHIGWSVPAAFGYAVGAPERRNILMVGDGSFQLTAQEVAQMVRLKLPVIIFLINNYGYTIEVMIHDGPYNNIKNWDYAGLMEVFNGNGGYDSGAGKGLKAKTGGELAEAIKVALANTDGPTLIECFIGREDCTEELVKWGKRVAAANSRKPVNKLL
# B2: Lactococcus lactis branched chain 2-oxoacid decarboxylase Ll-KdcA variant G402S, SEQ ID No. 196 (Lactococcus lactis; G402S) (protein)
# chain: MYTVGDYLLDRLHELGIEEIFGVPGDYNLQFLDQIISREDMKWIGNANELNASYMADGYARTKKAAAFLTTFGVGELSAINGLAGSYAENLPVVEIVGSPTSKVQNDGKFVHHTLADGDFKHFMKMHEPVTAARTLLTAENATYEIDRVLSQLLKERKPVYINLPVDVAAAKAEKPALSLEKESSTTNTTEQVILSKIEESLKNAQKPVVIAGHEVISFGLEKTVTQFVSETKLPITTLNFGKSAVDESLPSFLGIYNGKLSEISLKNFVESADFILMLGVKLTDSSTGAFTHHLDENKMISLNIDEGIIFNKVVEDFDFRAVVSSLSELKGIEYEGQYIDKQYEEFIPSSAPLSQDRLWQAVESLTQSNETIVAEQGTSFFGASTIFLKSNSRFIGQPLWSSIGYTFPAALGSQIADKESRHLLFIGDGSLQLTVQELGLSIREKLNPICFIINNDGYTVEREIHGPTQSYNDIPMWNYSKLPETFGATEDRVVSKIVRTENEFVSVMKEAQADVNRMYWIELVLEKEDAPKLLKKMGKLFAEQNK
# B3: Lactococcus lactis branched chain 2-oxoacid decarboxylase Ll-KdcA variant V461I, SEQ ID No. 198 (Lactococcus lactis; V461I) (protein)
# chain: B2 chain with S402G, V461I
# B4: Zymomonas mobilis pyruvate decarboxylase Zm-Pdc variant W392Q, SEQ ID No. 190 (Zymomonas mobilis subsp. mobilis ZM4 = ATCC 31821; W392Q) (protein)
# chain: B1 chain with W392Q, N413G
# Key:
# [1] = substrate: O=C(O)C(=O)CCO; test: OHB decarboxylase / pyruvate decarboxylase kinetics, Zm-Pdc G413N; assay type: biochemical, Zymomonas mobilis; settings: other: 37° C., pH 7, coupled to E. coli YqhD/NADPH
# Experimental: (§1) OHB decarboxylase activity was assayed by coupling the decarboxylase activity to the NADPH-dependent reduction of the released 3-hydroxypropanal by purified aldehyde reductase, YqhD, from E. coli. The decarboxylation of pyruvate was coupled to the NADH-dependent reduction of acetaldehyde catalysed by yeast alcohol dehydrogenase. Branched-chain alpha-ketoacid decarboxylase activity was measured on 4-methyl-2-oxovaleric acid by coupling to the NADH-dependent reduction of 3-methylbutanal catalysed by horse liver alcohol dehydrogenase. […] Reactions were started by adding 20 mM 2-oxo-4-hydroxybutyrate (OHB), 10 mM 4-methyl-2-oxovaleric acid (MOV), or 5 mM pyruvate.
# (§2) Site-directed mutagenesis of the L. lactis kdcA and the Z. mobilis Pdc genes was carried out using the oligonucleotide pairs listed in Table 9 and the pET28-Ll-kdcA and pET28-Zm-Pdc plasmids, respectively, as the template.
# (§3) Mutant enzymes were expressed, purified and tested for OHB decarboxylase, pyruvate decarboxylase and MOV decarboxylase activity as described in Example 4.
# [2] = substrate: O=C(O)C(=O)CCO; test: OHB decarboxylase / MOV decarboxylase kinetics, Ll-KdcA G402S; assay type: biochemical, Lactococcus lactis; settings: other: 37° C., pH 7, coupled to E. coli YqhD/NADPH
# Experimental: as §1, §2, §3
# [3] = substrate: CC(C)CC(=O)C(=O)O; test: as above; assay type: biochemical, Lactococcus lactis; settings: other: 37° C., pH 7, coupled to horse liver alcohol dehydrogenase/NADH
# Experimental: as §1, §2, §3
# [4] = substrate: O=C(O)C(=O)CCO; test: OHB decarboxylase / MOV decarboxylase kinetics, Ll-KdcA V461I; assay type: biochemical, Lactococcus lactis; settings: other: 37° C., pH 7, coupled to E. coli YqhD/NADPH
# Experimental: as §1, §2, §3
# [5] = substrate: CC(C)CC(=O)C(=O)O; test: as above; assay type: biochemical, Lactococcus lactis; settings: other: 37° C., pH 7, coupled to horse liver alcohol dehydrogenase/NADH
# Experimental: as §1, §2, §3
# [6] = substrate: CC(=O)C(=O)O; test: OHB decarboxylase / pyruvate decarboxylase kinetics, Zm-Pdc W392Q; assay type: biochemical, Zymomonas mobilis; settings: other: 37° C., pH 7, coupled to yeast alcohol dehydrogenase/NADH
# Experimental: as §1, §2, §3
# [7] = substrate: O=C(O)C(=O)CCO; test: as above; assay type: biochemical, Zymomonas mobilis; settings: other: 37° C., pH 7, coupled to E. coli YqhD/NADPH
# Experimental: as §1, §2, §3
protein,measurement,setting,value
B1,Km,[1],1400 µM
B2,Km,[2],1500 µM
same,Km,[3],1500 µM
B3,Km,[4],2800 µM
same,Km,[5],150 µM
B4,Km,[6],9200 µM
same,Km,[7],2900 µM

# Reference: patent US9605283B2, “Microorganism modified for the production of 1,3-propanediol” (INSTITUT NATIONAL DES SCIENCES APPLIQUÉES, priority 2012, dated 2017)
